# Values of other authors in patent US20030103959A1, “Methods of providing neuroprotection and/or neurorestoration via the neural activin type IIB receptor” (priority 2001, published 2003).
# System: quinolinic acid (QA) rat lesion model of Huntington's Disease
# Details: Hughes et al. 1999
molecule,measurement,value
"recombinant human (rh) activin-A: member of the TGF-β superfamily; 28 kDa disulphide-linked homodimer of two βA subunits (protein, UniProt P08476 311-426, looked up) Inhibin beta A chain: GLECDGKVNICCKKQFFVSFKDIGWNDWIIAPSGYHANYCEGECPSHIAGTSGSSLSFHSTVINHYRMRGHSPFANLKSCCVPTKLRPMSMLYYDDGQNIIKKDIQNMIVEECGCS",neurotrophic effects after administration,potent neurotrophic effects
